Assay results reported in US20200270588A1, “GLUCOSYL TRANSFERASE POLYPEPTIDES AND METHODS OF USE” (Syngenta Participations AG, priority 2017, published 2020).
Changes are numbered by the printed parent chain. Numbers in names are those of the source.

B1: M279F, H375F: mutant combination of bx9 SEQ ID NO:1 (protein)
chain: MASSRTGAGAGGRVVVFPFPFQGHFNPVMRLARALHARGLAITVFHSGALDPADYPADYRFVPVTVEADPKLLASEDIAAIVTTLNASCDAPFRARLSALLAAEGRDSVRCVFTDVSWNAVLTASSDLGVPALGMMTASAASLRDYMAYRTLIDKGYLPVKEERKEDPVPELPPYLVKDLLRVDTSDLEEFAELLARTVTAARRASGLIFNTFPLIETDTLAEIHKALSVPVFAVAPLNKLVPTATASLHGVVQADRGCLQWLDTQQPGSVLYVSFGSFAAMDPHEFVELAWGLADSKRPFVWVVRPNLIRGFESGALPDGVEDEVRGRGIVVAWAPQEEVLAHPAVGGFLTHNGWNSTVEAISEGVPMVCCPRFGDQFGNMRYVCDVWKVGTELVGEQLERGQVKAAIDRLFGTKEGEEIKERMKEFKIAAAKGIGIGVDVDETASPRTDLTDLVDLIKSF
modifications: Zea mays
B2: I81L (protein)
chain: B1 chain with I81L, F279M, F375H
modifications: Zea mays
B3: S117V: bx9 SEQ ID NO:1 mutant (protein)
chain: B1 chain with S117V, F279M, F375H
modifications: Zea mays
B4: C372L (protein)
chain: B1 chain with F279M, C372L, F375H
modifications: Zea mays
B5: L143F (protein)
chain: B1 chain with L143F, F279M, F375H
modifications: Zea mays
B6: M135V: bx9 SEQ ID NO:1 mutant (protein)
chain: B1 chain with M135V, F279M, F375H
modifications: Zea mays
B7: A334P (protein)
chain: B1 chain with F279M, A334P, F375H
modifications: Zea mays
B8: M279W: bx9 SEQ ID NO:1 mutant (protein)
chain: B1 chain with F279W, F375H
modifications: Zea mays
B9: M136F (protein)
chain: B1 chain with M136F, F279M, F375H
modifications: Zea mays
B10: S117I: bx9 SEQ ID NO:1 mutant (protein)
chain: B1 chain with S117I, F279M, F375H
modifications: Zea mays
B11: S117G: bx9 SEQ ID NO:1 mutant (protein)
chain: B1 chain with S117G, F279M, F375H
modifications: Zea mays
B12: A334T: bx9 SEQ ID NO:1 mutant (protein)
chain: B1 chain with F279M, A334T, F375H
modifications: Zea mays
B13: I81Y (protein)
chain: B1 chain with I81Y, F279M, F375H
modifications: Zea mays
B14: H24A (protein)
chain: B1 chain with H24A, F279M, F375H
modifications: Zea mays
B15: A334E: bx9 SEQ ID NO:1 mutant (protein)
chain: B1 chain with F279M, A334E, F375H
modifications: Zea mays
B16: A334C: bx9 SEQ ID NO:1 mutant (protein)
chain: B1 chain with F279M, A334C, F375H
modifications: Zea mays
B17: I78Y: bx9 SEQ ID NO:1 mutant (protein)
chain: B1 chain with I78Y, F279M, F375H
modifications: Zea mays
B18: A432P, M279F: double mutant of bx9 SEQ ID NO:1 (protein)
chain: B1 chain with F375H, A432P
modifications: Zea mays
B19: A334I (protein)
chain: B1 chain with F279M, A334I, F375H
modifications: Zea mays
B20: L143W (protein)
chain: B1 chain with L143W, F279M, F375H
modifications: Zea mays

Experiment: UDP luminescence plate assay of E. coli extracts, mutants of SEQ ID No: 1, 2 mM metribuzin
Format: biochemical, Zea mays
Conditions: for RATIO of the metribuzin signal to the DMSO signal: 2 mM metribuzin vs DMSO control, same mutant; for SIGNAL: metribuzin signal of mutant divided by the signal of w/t bx9: relative to bx9 w/t; for luminescence signal in the DMSO control: mutants of SEQ ID No: 1, DMSO in place of metribuzin (background UDP-glucose hydrolysis); for luminescence signal observed with 2 mM metribuzin: mutants of SEQ ID No: 1 in E. coli extracts, UDP luminescence; for luminescence signal with metribuzin: H24A null background 1.00E+05 not subtracted
Method: Optionally plate assays are stopped with brief heating to 95 C before returning to ice and addition of UDP-Glo detection reagent followed by incubation at lab temperature. […] In addition a UDP standard curve is run alongside each set of plate tests.
Assays were carried out on extracts of E. coli BL21 DE3 expressing the various C-terminally his-tagged library variants of SEQ ID NO:1 at the amino acid positions listed in Table 11 as described in Example 2 except, in this case, with 2 mM metribuzin in place of herbicide V.
Thus the ratio of the metribuzin to DMSO signal as well as the increase in signal relative to the w/t bx9 is used to help distinguish those mutations most likely to offer the highest activity to metribuzin. A follow up assay monitored by, for example, LC MS is one method to distinguish these cases more quantitatively.

Molecule | factor of increased signal relative to the bx9 w/t control signal (first parentheses) (2 mM metribuzin) | ratio of activity with metribuzin relative to activity with DMSO (second parentheses) (2 mM metribuzin) | RATIO of the metribuzin signal to the DMSO signal | SIGNAL: metribuzin signal of mutant divided by the signal of w/t bx9 (2 mM metribuzin) | luminescence signal in the DMSO control | luminescence signal observed with 2 mM metribuzin (2 mM metribuzin) | RATIO: metribuzin signal to DMSO signal (2 mM metribuzin) | SIGNAL: metribuzin signal of mutant divided by metribuzin signal of w/t bx9 (2 mM metribuzin) | luminescence signal with metribuzin (2 mM metribuzin)
B1 | 5.0 | 4.0 | – | – | – | – | – | – | –
B2 | – | – | 1.11 | 0.67 | 1.68E+05 | 1.87E+05 | – | – | –
B3 | – | – | – | 1.18 | 3.38E+05 | 3.30E+05 | – | – | –
B4 | – | – | 1.06 | 1.22 | 3.22E+05 | 3.41E+05 | – | – | –
B5 | – | – | 1.09 | 1.23 | 3.18E+05 | 3.45E+05 | – | – | –
B6 | – | – | – | – | – | – | 0.97 | 1.18 | 1.46E+05
B7 | – | – | 0.88 | 1.24 | 3.97E+05 | 3.48E+05 | – | – | –
B8 | – | – | – | 1.26 | 2.09E+05 | 3.51E+05 | – | 1.14 | 1.41E+05
B9 | – | – | 1.00 | 0.93 | 2.57E+05 | 2.59E+05 | – | – | –
B10 | – | – | – | 1.99 | 5.14E+05 | 5.56E+05 | – | – | –
B11 | – | – | – | 1.07 | 2.41E+05 | 3.00E+05 | – | 1.26 | 1.56E+05
B12 | – | – | – | – | – | – | 0.95 | 1.25 | 1.54E+05
B13 | – | – | 1.12 | 0.90 | 2.25E+05 | 2.53E+05 | – | – | –
B14 | – | – | – | – | 2.60E+05 | 2.39E+05 | – | – | –
B15 | – | – | – | – | – | – | 0.96 | 1.25 | 1.54E+05
B16 | – | – | – | – | – | – | 0.94 | 1.13 | 1.39E+05
B17 | – | – | – | 1.23 | 3.27E+05 | 3.44E+05 | – | – | –
B18 | – | – | – | 2.52 | 2.75E+05 | 7.06E+05 | – | 1.68 | 2.08E+05
B19 | – | – | 0.89 | 1.05 | 3.29E+05 | 2.94E+05 | – | – | –
B20 | – | – | 1.12 | 0.97 | 2.42E+05 | 2.72E+05 | – | – | –
